Measured values reported in the RNAGym collection of RNA variant scans (doi:10.1101/gr.219683.116).

B1: mRNA-splicing (parent)
chain: AGUUGCUGCUGGGAGCUCCAGCACAGUGAAAUGGACAGAAGGGCAGAGCAA

Variants of: B1
Experiment: exon inclusion enrichment index; higher = more inclusion; WT1 exon 5 minigene, HEK293

| Variant | exon inclusion enrichment index |
| --- | --- |
| AGUUAUAUAUGGGAGCUCCAGCACAGUGACAUGGACAGAAGGGCAGAGCAA | 0.0649 |
| AGUUCACACAGGGAGCUCCAGCACAGUGAGAUGGACAGAAGGGCAGAGCAA | 0.0971 |
| AGUUCACACAGGGAGCUCCAGCACAGUGAUAUGGACAGAAGGGCAGAGCAA | 0.0402 |
| AGUUCUUCUCGGGAGCUCCAGCACAGUGAAAUGGACAGAAGGGCAGAGCAA | 2.2 |
| AGUUAUAUAUGGGAGCGUCAGCACAGUGAAAUGGACAGAAGGGCAGAGCAA | 0.0294 |
| AGUUGAAGAAGUCAGCUCCAGCACAGUGAAAUGGACAGAAGGGCAGAGCAA | 1.06 |
| AGUUAGGGAUGGGAGCUCCACCACAGUGAAAUGGACAGAAGGGCAGAGCAA | 0.00079 |
| AGUUCUUCUCGGGAGCUCCAGCACAGUGAAAUGGACAGAAGGGGAGAGCAA | 2.79 |
| AGUUAGGGAUGGGAGCUCCAGCACAGUGAAAUGGACAGAUCGGCAGAGCAA | 0.0209 |
| AGUUGAAGAAGGGAGCUCCAGGGCAGUGAAAUGGACAGAAGGGCAGAGCAA | 0.212 |
| AGUUACCACCGGGAGCUCCAGCACAGUGAAAUCCACAGAAGGGCAGAGCAA | 1.34 |
| AGUCAUUCUCGGGAGCUCCAGCACAGUGAAAUGGACAGAAGGGCAGAGCAA | 1.56 |
| AGUUGCUGCUGGGAGCUCGAGCACAGUGAAAUGGACAGAAGGGCAGAGCAA | 2.42 |
| AGUUAGGGAUGGGAGCUCCAGCACAGUGAAAUGGACAGAAGGGCGAAGCAA | 0.0107 |
| AGUUGAAGAAGGGAGCUCCACUACAGUGAAAUGGACAGAAGGGCAGAGCAA | 0.813 |
| AGUUCUUCUAAGGAGCUCCAGCACAGUGAAAUGGACAGAAGGGCAGAGCAA | 0.661 |
| AGUUAGGGAUGGGAGCUCCAGCACAGUGAAAUCCACAGAAGGGCAGAGCAA | 0.0007 |
| AGUUCUUCUCGGGAGCUCCAGCACAGAGAAAUGGACAGAAGGGCAGAGCAA | 2.29 |
| AGUUCUUCUCGGGAGCUCCAGCACAGUGAAAUCUACAGAAGGGCAGAGCAA | 1.29 |
| AGUUCACACAGGGAGGCCCAGCACAGUGAAAUGGACAGAAGGGCAGAGCAA | 0.0308 |
| AGUUAUAUAUGGGAGCUCCAGCACAGACAAAUGGACAGAAGGGCAGAGCAA | 0.126 |
| AGUUCGCGCCGGGAGCUCCAGCACAGUGAAAUGGACAGAAGGAAAGAGCAA | 4.31 |
| AGUUCACACAGGGAGCUCCAGCACAGUGAACAGGACAGAAGGGCAGAGCAA | 0.0301 |
| AGUUAUAUAUGGGAGCUCCAGCACAGUGAAAUGGACAGAAGGGCAGAGCAA | 0.074 |
| AGUUACCACCGGGAGCACCAGCACAGUGAAAUGGACAGAAGGGCAGAGCAA | 1.89 |
| AGUUAGGUGUGGGAGCUCCAGCACAGUGAAAUGGACAGAAGGGCAGAGCAA | 0.00173 |

| Variant | exon inclusion enrichment index |
| --- | --- |
| AGUUGCUGCUGGGAGCUCCAGCACAGUGAAAUGGACAGAAGGGCAGCACAA | 0.0773 |
| AGUUGCUGCUGGGAGCUCCAGCACAGUGACGUGGACAGAAGGGCAGAGCAA | 0.41 |
| AGUUUCUUUUGGGAGCUCCAGCAUGGUGAAAUGGACAGAAGGGCAGAGCAA | 0.363 |
| AAGUGACGACGGGAGCUCCAGCACAGUGAAAUGGACAGAAGGGCAGAGCAA | 2.22 |
| AGUUCGCGCCGGGAGCUCCAGGGCAGUGAAAUGGACAGAAGGGCAGAGCAA | 2.57 |
| AGUUCACACAGGGAGCGCCAGCACAGUGAAAUGGACAGAAGGGCAGAGCAA | 0.0684 |
| AGUUCACACGUGGAGCUCCAGCACAGUGAAAUGGACAGAAGGGCAGAGCAA | 1.69 |
| AGUUGCUGCUGGGAGCUCCAGCACAGUCUAAUGGACAGAAGGGCAGAGCAA | 0.0556 |
| AGUUAUAACUGGGAGCUCCAGCACAGUGAAAUGGACAGAAGGGCAGAGCAA | 0.217 |
| AGUUGACGACGGGGUCUCCAGCACAGUGAAAUGGACAGAAGGGCAGAGCAA | 2.01 |
| AGUUAUAUAUGGGAGCUCCAGCACAGUGAAAGUGACAGAAGGGCAGAGCAA | 0.0122 |
| AGUUGAAGAAGGGAGCUCCAGCACAGUGAAAUGGACAGAUCGGCAGAGCAA | 1.33 |
| AGUUGACGACGGGAGCUCCCGCACAGUGAAAUGGACAGAAGGGCAGAGCAA | 3.02 |
| AGUUACCACCGGGAGCUCCAGCGUAGUGAAAUGGACAGAAGGGCAGAGCAA | 0.823 |
| AGUUCACACAGGGAGCUCCAGCACAGUGAAAUGGCAAGAAGGGCAGAGCAA | 0.0377 |
| AGUUCGCGAGGGGAGCUCCAGCACAGUGAAAUGGACAGAAGGGCAGAGCAA | 1.77 |
| AGUUCUUCUCGGGAGCUCCAGCACAAUGAAAUGGACAGAAGGGCAGAGCAA | 2.49 |
| AGUUUCUUUUGGGAGCUCCAGCACAGUGAAAUGGCAAGAAGGGCAGAGCAA | 0.0636 |
| AGUUUUUCUCGGGAGCUCCAGCACAGUGAAAUGGACAGAAGGGCAGAGCAA | 0.672 |
| AGUUGACGACGGGAGCUCCAGCACAGUGAAAUGGAAAGAAGGGCAGAGCAA | 2.48 |
| AGUUACCACCGGGAGCUCCAGCACAGUGAAAGGGACAGAAGGGCAGAGCAA | 0.244 |
| AGUUUCUUUUGGGAGCUCCGCCACAGUGAAAUGGACAGAAGGGCAGAGCAA | 0.187 |
| AGUUGAAGAAGGGAGCUCCUCCACAGUGAAAUGGACAGAAGGGCAGAGCAA | 0.712 |
| AGUUAUAUAUGGGAGCUCCAGCACAGUUAAAUGGACAGAAGGGCAGAGCAA | 0.0124 |
| AGUUCUUCUCGGGAGCUCCAUUACAGUGAAAUGGACAGAAGGGCAGAGCAA | 0.512 |
| AGUUGCUGCUGGGAGCUCCAGGUCAGUGAAAUGGACAGAAGGGCAGAGCAA | 0.496 |

| Variant | exon inclusion enrichment index |
| --- | --- |
| AGUUGAAGAAGGGAGCUCCAGCACAGUGAAAUGGACAGAAGGGUAGAGCAA | 0.122 |
| AGUUAGGGAUGGGAGCUCCAGCACAGUGAAAUGGUUAGAAGGGCAGAGCAA | 0.000752 |
| AGUUAUAUAUGGGAGGUCCAGCACAGUGAAAUGGACAGAAGGGCAGAGCAA | 0.0112 |
| AGUUCUUCUCGGGAGCUCCAGCACAGUGAAAUGGACAGAAGGGCGCAGCAA | 2.3 |
| AGUUUCUUUUGGGAGCUCCAGCACAGUGAAAUGGACAGAAGGGCAUAGCAA | 0.0708 |
| AGUUGCUGCUGGGAGCUCCAGCACAGUGAAAUGGACAGAAGGGCAAAGCAA | 0.245 |
| AGGCAUAUAUGGGAGCUCCAGCACAGUGAAAUGGACAGAAGGGCAGAGCAA | 0.122 |
| AGGAUCUUUUGGGAGCUCCAGCACAGUGAAAUGGACAGAAGGGCAGAGCAA | 0.0683 |
| AGUUGAAGAAGGGAGCUCCAGCAACGUGAAAUGGACAGAAGGGCAGAGCAA | 2.22 |
| AGUUGAAGAAGGGAGCUCCAUUACAGUGAAAUGGACAGAAGGGCAGAGCAA | 0.172 |
| AGUUCUUCUCGGGAGCUCCAGCACAGUGAAAUGGAAGGAAGGGCAGAGCAA | 0.805 |
| AGUUACCACCGGGAGCUCCAGCAUUGUGAAAUGGACAGAAGGGCAGAGCAA | 2.36 |
| ACAUGAAGAAGGGAGCUCCAGCACAGUGAAAUGGACAGAAGGGCAGAGCAA | 0.863 |
| AGUUGCUGCUGGGAGCUCCAGCACAGGGAAAUGGACAGAAGGGCAGAGCAA | 0.0622 |
| AGUUUCUUUUGGGAGCUCCAGCACAGUUCAAUGGACAGAAGGGCAGAGCAA | 0.0643 |
| AGUUCACACAGGGAGCUCCAGCACAGUGAAAUGGACAGAAGGGCAGACCAA | 0.213 |
| AGUUGCUGCUGGGAACUCCAGCACAGUGAAAUGGACAGAAGGGCAGAGCAA | 0.048 |
| AGUUAGGGAUGGACGCUCCAGCACAGUGAAAUGGACAGAAGGGCAGAGCAA | 0.0219 |
| AGUAACUUUUGGGAGCUCCAGCACAGUGAAAUGGACAGAAGGGCAGAGCAA | 0.144 |
| AGUUUCUUUUGGGAGCUCCAGCACAUUGAAAUGGACAGAAGGGCAGAGCAA | 0.161 |
| AGUUACCACCGGGAGCUCCAGCACAGUGAGAUGGACAGAAGGGCAGAGCAA | 2.36 |
| AGUUGAAGAAGGGAGCUCCAGCACAGUGAAAUGGACAGAAGUUCAGAGCAA | 1.61 |
| AGUUUCUUUUGGGAGCUCCAGCACAGUGAAACUGACAGAAGGGCAGAGCAA | 0.0499 |
| AGUUGACGACGGGAGCUCAUGCACAGUGAAAUGGACAGAAGGGCAGAGCAA | 2.07 |
| AGUUCUUCGUGGGAGCUCCAGCACAGUGAAAUGGACAGAAGGGCAGAGCAA | 3.5 |
| AGUUAUAUAUGGGAGCUCCAGCACAGUGAAAUGGACAGAACCGCAGAGCAA | 0.417 |

| Variant | exon inclusion enrichment index |
| --- | --- |
| AGUUGACGACGGGAGCUCCAGCACAGUGAAAUGGACAGAAGGGCUCAGCAA | 2.51 |
| AGUUCUUCUCGGGAGCUCCAGCACAGUGAAAUGGACAGAUUGGCAGAGCAA | 0.94 |
| AGUUAUAUAUGGGAGCUGUAGCACAGUGAAAUGGACAGAAGGGCAGAGCAA | 0.00519 |
| AGUUAGGGAUGGGAGCUCCAAUACAGUGAAAUGGACAGAAGGGCAGAGCAA | 0.00087 |
| AGUUUCUUUUGGGAGCUCCAGCACAGUGAAAUGGACAAAAGGGCAGAGCAA | 0.0418 |
| AGUUGAAGAAGGGAGCUCCAGCACAGUGAAAUGGACAGAGCGGCAGAGCAA | 2.13 |
| AGUUCACACUAGGAGCUCCAGCACAGUGAAAUGGACAGAAGGGCAGAGCAA | 0.126 |
| AGUUUCUUUUGGGGUCUCCAGCACAGUGAAAUGGACAGAAGGGCAGAGCAA | 0.0063 |
| AGUUACCACCGGGAGCUCCAGCACAGUGAAAUGGACAGAAGGGCAUGGCAA | 1.85 |
| AGUUAUAUAUGGGAGCUCCAGCACAGUGAAACGGACAGAAGGGCAGAGCAA | 0.14 |
| AGUUGACGACGGGAGCUCCAGCGUAGUGAAAUGGACAGAAGGGCAGAGCAA | 1.95 |
| AGUUGACGACGGGAGCUCCAGCACAGUGAAAUGGACAGAAGGGCGCAGCAA | 3.3 |
| AGUUGACGACGGGAGCUCCAGCAGCGUGAAAUGGACAGAAGGGCAGAGCAA | 4.59 |
| AGUUGACGACGGGAGCUCCAGCAGUGUGAAAUGGACAGAAGGGCAGAGCAA | 3.51 |
| AGUUACCACCGGGAGCUCCAGCACAGUGAAAUCGACAGAAGGGCAGAGCAA | 2.65 |
| AGUUAGGGAUGGGAGCUCCAGCACAGUGAAAUGGACAGAAAAGCAGAGCAA | 0.0013 |
| ACGUGAAGAAGGGAGCUCCAGCACAGUGAAAUGGACAGAAGGGCAGAGCAA | 1.14 |
| AGUUGAAGAAGGGAGCUCCAGCACAGUGAAAUGCCCAGAAGGGCAGAGCAA | 0.0588 |
| AGUUCGCGCCGGGAGCUCCUGCACAGUGAAAUGGACAGAAGGGCAGAGCAA | 3.58 |
| AGUUGCUUUUGGGAGCUCCAGCACAGUGAAAUGGACAGAAGGGCAGAGCAA | 0.3 |
| AGUUGACGACGGGAGCUCCAGGCCAGUGAAAUGGACAGAAGGGCAGAGCAA | 1.74 |
| AGUUGACGACGGGAGCUCCAGCACAGUGAAAUGGACAGAAGGGCAGCGCAA | 3.27 |
| AGUUAGGGAUGGGAGCUCCAGCACAGUGAACCGGACAGAAGGGCAGAGCAA | 0.00479 |
| AGUUACCACCGGGAGCUCCAGACCAGUGAAAUGGACAGAAGGGCAGAGCAA | 3.53 |
